The source of these data is patent US20230303994.

To fix the notation:
B1: trypsin variant SEQ ID NO: 79 (protein)
chain: IVGGYTCAANSIPYQVSLNSGSHRCGGSLINSQWVVSAAHCYKPRIQVRLGEHNIHVLEGNEQFINAAKIITHPNFNPNTLDNDIMLIKLSSPATLNSHVATVSLPRSCAAAGTECLISGWGNTASSGSSMPSLLQCLKAPVLSDSSCKSSYPGQITGNMICVGFLEGGKDACQGDSGGPVVCNGQLQGIVSSGYGCAQKNKPGVYTKVCNYVNWIQQTIAAN
B2: trypsin variant SEQ ID NO: 11 (protein)
chain: B1 chain with P44S, H56D, P78G, H99N, A125K, M131Y
B3: trypsin variant SEQ ID NO: 10 (protein)
chain: B1 chain with P44S, H56D, P78G, H99T, A125K, M131Y
B4: trypsin variant SEQ ID NO: 81 (protein)
chain: B1 chain with P44S, R107T
B5: trypsin variant SEQ ID NO: 85 (protein)
chain: B1 chain with R107T, A125C
B6: trypsin variant SEQ ID NO: 88 (protein)
chain: B1 chain with R107T, A125S, A172S
B7: trypsin variant SEQ ID NO: 101 (protein)
chain: B1 chain with P44S, H99N, R107T, A125S, K170A
B8: trypsin variant SEQ ID NO: 80 (protein)
chain: B1 chain with P44S, R107T, A125S
B9: trypsin variant SEQ ID NO: 92 (protein)
chain: B1 chain with H99A, R107T, A125C
B10: trypsin variant SEQ ID NO: 98 (protein)
chain: B1 chain with H99A, R107T, K170A, A172S
B11: trypsin variant SEQ ID NO: 83 (protein)
chain: B1 chain with H99N, R107T, A125S
B12: trypsin variant SEQ ID NO: 99 (protein)
chain: B1 chain with P44S, H99N, R107T, A125S, M131Y, K170A
B13: trypsin variant SEQ ID NO: 90 (protein)
chain: B1 chain with R107T, A172S
B14: trypsin variant SEQ ID NO: 84 (protein)
chain: B1 chain with H99N, R107T, A125S, A172S
B15: trypsin variant SEQ ID NO: 94 (protein)
chain: B1 chain with P78G, H99N, A125C, K170A
B16: trypsin variant SEQ ID NO: 82 (protein)
chain: B1 chain with A125C
B17: trypsin variant SEQ ID NO: 96 (protein)
chain: B1 chain with H56D, A125S, K170A
B18: trypsin variant SEQ ID NO: 97 (protein)
chain: B1 chain with H99A, R107T, K170A
B19: trypsin variant SEQ ID NO: 95 (protein)
chain: B1 chain with A125S, K170A
B20: trypsin variant SEQ ID NO: 89 (protein)
chain: B1 chain with R107T
B21: trypsin variant SEQ ID NO: 100 (protein)
chain: B1 chain with H56D, R107T, A125C, K170A
B22: trypsin variant SEQ ID NO: 91 (protein)
chain: B1 chain with H99A, R107T, A125S
B23: trypsin variant SEQ ID NO: 86 (protein)
chain: B1 chain with H56D, H99A, R107T, A125S
B24: trypsin variant SEQ ID NO: 87 (protein)
chain: B1 chain with R107T, A125S
B25: trypsin variant SEQ ID NO: 93 (protein)
chain: B1 chain with P44S, H56D, H99N, R107T, A125C, K170A

Numbering of substitutions follows the chain as printed. Bounds are passed on as bounds.

The target of the first series is pre-pro-human insulin.
B1: the “Activity PPI cleavage” value is given as “yes” and the Selectivity was over 90%.
As to B2, the “Activity PPI cleavage” value is listed as “yes” and the Selectivity was over 90%.
Take B3: the “Activity PPI cleavage” value is reported as “yes” and the Selectivity is over 90%.
B4: the “Activity PPI cleavage” value is recorded as “yes” and the Selectivity is reported as over 90%.
As for B5, the “Activity PPI cleavage” value is recorded as “yes” and the Selectivity is over 90%.
For the protein B6, the “Activity PPI cleavage” value is listed as “yes” and the Selectivity is over 90%.
As to B7, the “Activity PPI cleavage” value is given as “yes” and the Selectivity is given as over 90%.
On to B8, for which the “Activity PPI cleavage” value is “yes” and the Selectivity is recorded as over 90%.
The like results for B9 were, in that order, “yes” and over 90%.
In the case of B10, the “Activity PPI cleavage” value is listed as “yes” and the Selectivity is given as over 90%.
On to B11, for which the “Activity PPI cleavage” value is on record as “yes” and the Selectivity is given as over 90%.
Consider B12, for which the “Activity PPI cleavage” value is reported as “yes” and the Selectivity is recorded as over 80%.
Consider B13, for which the “Activity PPI cleavage” value is “yes” and the Selectivity is over 90%.
B14: the “Activity PPI cleavage” value was “yes” and the Selectivity is recorded as over 90%.
Take B15: the “Activity PPI cleavage” value was “yes” and the Selectivity is reported as over 90%.
With B16, the “Activity PPI cleavage” value was “yes” and the Selectivity is listed as over 90%.
On to B17, for which the “Activity PPI cleavage” value is on record as “yes” and the Selectivity is over 90%.
Regarding B18, the “Activity PPI cleavage” value was “yes” and the Selectivity is reported as over 90%.
Consider B19, for which the “Activity PPI cleavage” value was “yes” and the Selectivity is listed as over 90%.
Take B20: the “Activity PPI cleavage” value is recorded as “yes” and the Selectivity was over 90%.
The like results for B21 were, in that order, “yes” and over 90%.
Consider B22, for which the “Activity PPI cleavage” value was “yes” and the Selectivity is over 90%.
As to B23, the “Activity PPI cleavage” value was “yes” and the Selectivity is over 90%.
As for B24, the “Activity PPI cleavage” value is “yes” and the Selectivity is over 90%.
B25: the “Activity PPI cleavage” value is given as “yes” and the Selectivity is reported as over 90%.

A further series deals with pre-pro-insulin glargine.
B1 registered a Purity Insulin Glargine of 87.8 area %, a Yield of over 90%, a desArg of 0.7 area % and a desThr of 0.3 area %.
Take B2: the Purity Insulin Glargine is 84.1 area %, the Yield was over 90%, the desArg was under 0.5 area % and the desThr was 2.2 area %.
As to B3, the Purity Insulin Glargine was determined as 82.7 area %, the Yield is over 90%, the desArg is under 0.5 area % and the desThr was 2.6 area %.
B4: the Purity Insulin Glargine amounted to 89.7 area %, the Yield was over 90%, the desArg is 1.2 area % and the desThr amounted to 0.5 area %.
Regarding B5, the Purity Insulin Glargine was determined as 85.4 area %, the Yield is over 90%, the desArg turned out to be 1.1 area % and the desThr worked out at 0.2 area %.
B6 had a Purity Insulin Glargine of 84.3 area %, a Yield of over 90%, a desArg of 0.7 area % and a desThr of 1.9 area %.
In the case of B7, the Purity Insulin Glargine came out at 89.2 area %, the Yield was over 90%, the desArg came out at 1 area % and the desThr amounted to 0.4 area %.
As for B8, the Purity Insulin Glargine came out at 90.1 area %, the Yield was over 90%, the desArg stood at 0.9 area % and the desThr was 0.5 area %.
The protein B9 had a Purity Insulin Glargine of 88.1 area %, a Yield of over 90%, a desArg of 0.9 area % and a desThr of 0.6 area %.
For B10, in that order: 89.4 area %, over 90%, 0.9 area % and 2.7 area %.
Protein B11 came in with a Purity Insulin Glargine of 89 area %, a Yield of over 90%, a desArg of under 0.5 area % and a desThr of 1.2 area %.
For B12, in that order: 89.2 area %, over 90%, 0.9 area % and 1 area %.
For B13, in that order: 89.5 area %, over 90%, 0.9 area % and 0.2 area %.
As to B14, the Purity Insulin Glargine came out at 85.4 area %, the Yield is over 90%, the desArg came to 0.6 area % and the desThr was found to be 1.6 area %.
As for B15, the Purity Insulin Glargine was determined as 85.2 area %, the Yield is over 90%, the desArg was 0.8 area % and the desThr was found to be 0.3 area %.
On to B16, for which the Purity Insulin Glargine was 83.8 area %, the Yield is over 80%, the desArg amounted to 0.6 area % and the desThr is 0.3 area %.
In the case of B17, the Purity Insulin Glargine came to 78.7 area %, the Yield was over 80%, the desArg is 0.7 area % and the desThr came to 0.3 area %.
B18: the Purity Insulin Glargine was 89.4 area %, the Yield was over 90%, the desArg was under 0.5 area % and the desThr is 1.2 area %.
Take B19: the Purity Insulin Glargine amounted to 90 area %, the Yield is over 90%, the desArg is 1 area % and the desThr amounted to 0.6 area %.
Consider B20, for which the Purity Insulin Glargine stood at 88.1 area %, the Yield is over 90%, the desArg was 0.5 area % and the desThr amounted to 1.2 area %.
B21: the Purity Insulin Glargine is 80 area %, the Yield is over 80%, the desArg turned out to be 0.7 area % and the desThr turned out to be 0.3 area %.
Take B22: the Purity Insulin Glargine is 86.8 area %, the Yield was over 90%, the desArg was determined as 1 area % and the desThr was found to be 0.3 area %.
In turn, B23 registered a Purity Insulin Glargine of 79.3 area %, a Yield of over 80%, a desArg of 0.8 area % and a desThr of 0.1 area %.
B24 registered a Purity Insulin Glargine of 83.8 area %, a Yield of over 80%, a desArg of 0.6 area % and a desThr of 0.3 area %.
B25: the Purity Insulin Glargine was 71.3 area %, the Yield was over 75%, the desArg turned out to be 0.7 area % and the desThr turned out to be 0.3 area %.
